This test concerns the target not2_yeast CDC36 (UniProt P06100).
Sequence of UniProt P06100 (P06100 whole entry): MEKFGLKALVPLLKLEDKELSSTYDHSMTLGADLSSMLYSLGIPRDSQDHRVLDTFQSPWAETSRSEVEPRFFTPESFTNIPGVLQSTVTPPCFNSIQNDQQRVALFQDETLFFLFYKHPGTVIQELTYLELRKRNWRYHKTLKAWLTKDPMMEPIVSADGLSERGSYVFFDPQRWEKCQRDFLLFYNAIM

In the case of “General negative regulator of transcription subunit 1 (Saccharomyces cerevisiae), P25655 F1751E”, the “effect of a mutation on the interaction” value is “disrupting interaction strength”. Then “General negative regulator of transcription subunit 1 (Saccharomyces cerevisiae), P25655 R1811E;L1814E”, with “disrupting interaction strength”.
